Where “and” joins values, the source holds several entries; their conditions need not be identical. Equal values may be shown once. No end group written: not given here.
Molecular target: Recombinant Gn (residues 21–452) of the SFTSV membrane glycoprotein polyprotein (severe fever with thrombocytopenia syndrome virus)
Assay: ELISA

B1: Biotinylated HKU-P1 (peptide)
peptide: KKRGFGS
modifications: not fully specified
In the case of B1, the binding affinity is reported as 700 µg/mL and the signal over background at 250 µg/mL (fold) is reported as 2 fold and 3 fold.

From PMC8539749 (Viruses, 2021)
